Results from patent publication US20260070975A1 (SANTA ANA BIO, published 2026).
Changes are numbered by the printed parent chain.

T1: siglec 5 expressed on HEK293 cells (UniProt O15389 17-551, limits assumed)
T1 construct: whole, on cells; also called Siglec-6 family member
T1 sequence (looked up): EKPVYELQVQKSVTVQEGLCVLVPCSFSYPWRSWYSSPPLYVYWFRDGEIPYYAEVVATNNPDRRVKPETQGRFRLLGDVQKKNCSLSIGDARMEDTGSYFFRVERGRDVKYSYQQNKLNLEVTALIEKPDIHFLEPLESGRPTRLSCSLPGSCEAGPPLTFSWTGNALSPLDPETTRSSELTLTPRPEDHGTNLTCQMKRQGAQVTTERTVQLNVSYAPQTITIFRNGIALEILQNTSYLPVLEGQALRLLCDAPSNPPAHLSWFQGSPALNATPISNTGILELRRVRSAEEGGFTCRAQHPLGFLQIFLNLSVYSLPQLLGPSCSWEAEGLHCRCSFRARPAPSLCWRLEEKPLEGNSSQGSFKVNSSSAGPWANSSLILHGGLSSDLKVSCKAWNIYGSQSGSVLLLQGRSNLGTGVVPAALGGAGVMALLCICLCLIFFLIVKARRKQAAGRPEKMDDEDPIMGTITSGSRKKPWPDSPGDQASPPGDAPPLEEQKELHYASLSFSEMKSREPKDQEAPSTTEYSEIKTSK

T2: siglec 2 expressed on HEK293 cells (UniProt P20273 20-847, limits assumed)
T2 construct: whole, on cells; also called Siglec-6 family member
T2 sequence (looked up): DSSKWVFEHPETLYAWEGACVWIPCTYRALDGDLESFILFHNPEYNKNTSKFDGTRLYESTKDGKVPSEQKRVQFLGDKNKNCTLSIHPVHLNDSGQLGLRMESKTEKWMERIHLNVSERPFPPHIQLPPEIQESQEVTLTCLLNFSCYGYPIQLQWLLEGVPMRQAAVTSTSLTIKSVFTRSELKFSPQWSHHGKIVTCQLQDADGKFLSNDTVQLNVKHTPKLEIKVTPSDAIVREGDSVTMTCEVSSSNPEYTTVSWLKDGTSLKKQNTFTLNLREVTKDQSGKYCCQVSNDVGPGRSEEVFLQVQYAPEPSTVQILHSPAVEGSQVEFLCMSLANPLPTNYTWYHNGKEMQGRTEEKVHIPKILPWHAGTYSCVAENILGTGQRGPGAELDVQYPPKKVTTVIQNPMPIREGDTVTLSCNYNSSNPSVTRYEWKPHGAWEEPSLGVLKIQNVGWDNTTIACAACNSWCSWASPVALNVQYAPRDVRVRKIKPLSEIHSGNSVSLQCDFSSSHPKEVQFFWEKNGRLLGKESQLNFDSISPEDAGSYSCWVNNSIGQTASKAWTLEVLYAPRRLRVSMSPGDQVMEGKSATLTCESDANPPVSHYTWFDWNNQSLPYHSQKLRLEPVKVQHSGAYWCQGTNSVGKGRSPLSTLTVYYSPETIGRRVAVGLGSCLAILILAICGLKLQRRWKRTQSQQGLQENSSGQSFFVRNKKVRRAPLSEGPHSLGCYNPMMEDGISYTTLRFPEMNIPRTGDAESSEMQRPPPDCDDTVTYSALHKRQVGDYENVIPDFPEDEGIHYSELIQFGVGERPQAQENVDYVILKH

B1: hRND-2 (antibody, human IgG1, kappa, V domains shown)
VH: QVQLVQSGAEVKKPGASVKVSCKASGYAFTSYWMHWVRQAPGQRLEWMGEIYPTNGGTTYAQKFQGRVTMTVDKSTSTAYMELSRLRSDDTAVYYCTIEDFYAMDYWGQGTTVTVSS
VL: DIVMTQTPLSLSVTPGQPASISCKSSQSLLDSDGKTSLNWLLQKPGQSPQRLIYLVSKLDSGVPDRFSGSGSGTDFTLKISRVEAEDVGVYYCWQGTHFPYTFGQGTKLEIKR
notes: also called humanized RND-2; hRND-H2 / hRND-L3; copies: 2 + 2
B2: hRND-5 (antibody, human IgG1, kappa, V domains shown)
VH: B1 VH with V20L, M48I, A61N, Q62E, Q65K, G66R, V68A, M70L
VL: B1 VL
notes: also called humanized RND-5; hRND-H3b / hRND-L3; copies: 2 + 2
B3: hRND-4 (antibody, human IgG1, kappa, V domains shown)
VH: B1 VH with A61N, Q62E, Q65K, G66R
VL: B1 VL
notes: also called humanized RND-4; hRND-H2b / hRND-L3; copies: 2 + 2
B4: hRND-3 (antibody, human IgG1, kappa, V domains shown)
VH: B1 VH with V20L, M48I, V68A, M70L
VL: B1 VL
notes: also called humanized RND-3; hRND-H3 / hRND-L3; copies: 2 + 2

Target: T3, Human siglec-6 (BLI analyte) (human, UniProt O43699 27-347, limits assumed)
T3 construct: also called human siglect-6
Experiment: BLI (Octet), antibody on capture sensor
Description: Further, binding affinities of siglec-6 antibodies to human siglec-6 were measured by […] using an Octect instrument. Briefly, capture sensors were loaded with test antibodies with 3-fold dilutions. The association and dissociation rates to were determined and used to calculate the equilibrium dissociation constant KD (Table 6).

T3 sequence (O43699 27-347 limits assumed): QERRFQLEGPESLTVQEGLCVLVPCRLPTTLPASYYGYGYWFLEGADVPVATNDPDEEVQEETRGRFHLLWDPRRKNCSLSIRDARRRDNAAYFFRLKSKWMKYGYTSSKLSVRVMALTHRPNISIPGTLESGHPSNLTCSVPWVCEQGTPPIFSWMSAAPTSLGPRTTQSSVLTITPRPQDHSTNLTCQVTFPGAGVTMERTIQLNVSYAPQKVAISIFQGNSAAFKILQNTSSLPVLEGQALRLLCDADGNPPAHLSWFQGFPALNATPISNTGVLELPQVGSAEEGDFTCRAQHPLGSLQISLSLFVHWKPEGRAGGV

| Kd | Binder |
| --- | --- |
| 0.17 nM | B1 |
| 0.166 nM | B2 |
| 0.315 nM | B3 |
| 0.137 nM | B4 |

Target: T4, Human siglec-6 expressed on the cell surface (HMC1.2 cells; HEK293 cells expressing human siglec-6) (human, UniProt O43699 27-453)
T4 construct: whole, on cells; also called cell surface expressed siglec-6; CD327
Experiment: flow cytometry on HMC1.2 cells
Description: (§1) Target binding of siglec-6 antibodies to siglec-6-expressing cells was assessed by flow cytometry. Cultured HMC1.2 cells were resuspended in FACS Blocking Buffer (PBS+10% normal human serum) for 30 minutes. Following washing, cells were incubated with siglec-6 antibodies in FACS Buffer (PBS+0.5% bovine serum albumin+0.09% sodium azide) and incubated at 4° C. for 30 minutes, washed and incubated with PE-labeled anti-human or anti-mouse secondary antibodies. Cells were incubated at 4° C. for 30 minutes in the dark. Following washing, cytofluorimetric analysis was conducted using a BD FACS Symphony A3 (BD Biosciences). Cells were sorted by scatter properties and separated for single cell analysis using side scatter width vs side scatter area. Antibody binding to cells was quantitated by measuring fluorescent emissions of excitation wavelength of 561 nm using a 586/15 nm filter. All tested siglec-6 antibodies were capable of binding to cells expressing siglec-6.

T4 sequence (O43699 27-453): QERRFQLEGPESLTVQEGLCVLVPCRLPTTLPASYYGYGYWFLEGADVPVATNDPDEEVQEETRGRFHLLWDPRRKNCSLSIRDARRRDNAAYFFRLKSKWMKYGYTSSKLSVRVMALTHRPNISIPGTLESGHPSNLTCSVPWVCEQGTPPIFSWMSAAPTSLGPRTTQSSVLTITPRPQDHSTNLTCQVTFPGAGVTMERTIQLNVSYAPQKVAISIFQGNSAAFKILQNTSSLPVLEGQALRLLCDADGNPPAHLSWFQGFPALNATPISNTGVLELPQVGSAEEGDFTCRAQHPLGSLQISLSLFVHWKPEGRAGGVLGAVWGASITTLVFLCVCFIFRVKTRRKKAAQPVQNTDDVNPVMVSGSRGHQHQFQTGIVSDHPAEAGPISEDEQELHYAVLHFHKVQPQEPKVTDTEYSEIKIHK

| MFI | Percent Positive for Siglec-6 on HMC1.2 cells | Binder |
| --- | --- | --- |
| 3130 MFI | 99.9% | B1 |
| 1940 MFI | 99.9% | B2 |
| 3200 MFI | 100% | B3 |
| 3700 MFI | 99.9% | B4 |

Target: T5, siglec 1 expressed on HEK293 cells (UniProt Q9BZZ2 20-1709, limits assumed)
T5 construct: whole, on cells; also called Siglec-6 family member
Experiment: flow cytometry on HEK293 cells expressing the target
Description: as §1, with “Cultured HEK293” for “Target binding of siglec-6 antibodies to siglec-6-expressing”, “expressing human siglec-6, cynomolgus siglec-6, or siglec 6 family members” for “was assessed by flow cytometry. Cultured HMC1.2 cells”, “anti-human” for “anti-human or anti-mouse”, “antibody.” for “antibodies.”, “Data analysis was performed using FlowJo Software.” for “All tested siglec-6 antibodies were capable of binding to cells expressing siglec-6.”

T5 sequence (Q9BZZ2 20-1709 limits assumed): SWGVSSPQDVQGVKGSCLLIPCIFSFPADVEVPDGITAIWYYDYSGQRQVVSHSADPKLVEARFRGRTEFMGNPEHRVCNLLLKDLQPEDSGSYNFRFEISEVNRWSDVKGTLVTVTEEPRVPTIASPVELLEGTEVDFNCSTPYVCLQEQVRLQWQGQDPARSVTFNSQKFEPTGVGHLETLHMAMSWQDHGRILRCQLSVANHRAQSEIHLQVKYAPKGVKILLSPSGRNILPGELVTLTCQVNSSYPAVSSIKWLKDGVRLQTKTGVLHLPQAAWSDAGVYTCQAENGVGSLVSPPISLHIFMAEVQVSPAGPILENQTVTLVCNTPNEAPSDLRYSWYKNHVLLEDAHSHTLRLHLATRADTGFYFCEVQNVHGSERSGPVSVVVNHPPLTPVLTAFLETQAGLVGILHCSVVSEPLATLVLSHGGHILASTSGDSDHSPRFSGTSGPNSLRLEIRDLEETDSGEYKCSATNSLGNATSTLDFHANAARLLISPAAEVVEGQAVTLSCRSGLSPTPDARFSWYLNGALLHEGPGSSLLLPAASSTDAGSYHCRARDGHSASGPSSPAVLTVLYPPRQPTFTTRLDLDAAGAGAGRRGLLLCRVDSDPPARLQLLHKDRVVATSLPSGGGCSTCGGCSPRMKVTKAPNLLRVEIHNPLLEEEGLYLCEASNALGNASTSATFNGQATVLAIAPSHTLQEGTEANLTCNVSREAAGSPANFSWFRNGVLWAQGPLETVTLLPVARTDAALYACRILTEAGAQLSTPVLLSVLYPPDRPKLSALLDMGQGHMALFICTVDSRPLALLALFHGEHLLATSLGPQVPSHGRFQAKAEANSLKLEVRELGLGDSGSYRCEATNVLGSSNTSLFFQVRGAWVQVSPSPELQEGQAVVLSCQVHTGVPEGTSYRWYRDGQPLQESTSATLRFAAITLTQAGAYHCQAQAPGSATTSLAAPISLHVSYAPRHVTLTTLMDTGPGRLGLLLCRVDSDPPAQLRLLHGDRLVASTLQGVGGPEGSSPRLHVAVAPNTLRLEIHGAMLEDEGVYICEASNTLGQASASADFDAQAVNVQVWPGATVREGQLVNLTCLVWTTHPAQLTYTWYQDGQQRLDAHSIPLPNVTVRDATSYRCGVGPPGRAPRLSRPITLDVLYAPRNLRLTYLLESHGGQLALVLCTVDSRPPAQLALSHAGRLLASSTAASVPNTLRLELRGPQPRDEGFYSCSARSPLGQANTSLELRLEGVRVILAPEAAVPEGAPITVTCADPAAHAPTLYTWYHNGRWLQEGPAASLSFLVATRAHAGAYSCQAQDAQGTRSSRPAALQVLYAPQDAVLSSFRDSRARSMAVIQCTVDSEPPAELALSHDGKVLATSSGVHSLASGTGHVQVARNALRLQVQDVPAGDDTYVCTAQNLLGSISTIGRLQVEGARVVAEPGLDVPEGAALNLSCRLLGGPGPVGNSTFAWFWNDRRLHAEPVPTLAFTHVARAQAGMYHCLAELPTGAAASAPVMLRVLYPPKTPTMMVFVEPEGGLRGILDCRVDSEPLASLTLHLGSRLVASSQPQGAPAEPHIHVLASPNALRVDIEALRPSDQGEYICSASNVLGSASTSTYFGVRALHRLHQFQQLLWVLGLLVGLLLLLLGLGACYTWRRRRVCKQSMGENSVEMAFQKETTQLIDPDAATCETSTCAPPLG

| binding result | Binder |
| --- | --- |
| no binding | B1 |
| no binding | B2 |
| no binding | B3 |
| no binding | B4 |

Target: T6, siglec 8 expressed on HEK293 cells (UniProt Q9NYZ4 17-499, limits assumed)
T6 construct: whole, on cells; also called Siglec-6 family member
Experiment: as above
Description: as §1, with “Cultured HEK293” for “Target binding of siglec-6 antibodies to siglec-6-expressing”, “expressing human siglec-6, cynomolgus siglec-6, or siglec 6 family members” for “was assessed by flow cytometry. Cultured HMC1.2 cells”, “anti-human” for “anti-human or anti-mouse”, “antibody.” for “antibodies.”, “Data analysis was performed using FlowJo Software.” for “All tested siglec-6 antibodies were capable of binding to cells expressing siglec-6.”

T6 sequence (Q9NYZ4 17-499 limits assumed): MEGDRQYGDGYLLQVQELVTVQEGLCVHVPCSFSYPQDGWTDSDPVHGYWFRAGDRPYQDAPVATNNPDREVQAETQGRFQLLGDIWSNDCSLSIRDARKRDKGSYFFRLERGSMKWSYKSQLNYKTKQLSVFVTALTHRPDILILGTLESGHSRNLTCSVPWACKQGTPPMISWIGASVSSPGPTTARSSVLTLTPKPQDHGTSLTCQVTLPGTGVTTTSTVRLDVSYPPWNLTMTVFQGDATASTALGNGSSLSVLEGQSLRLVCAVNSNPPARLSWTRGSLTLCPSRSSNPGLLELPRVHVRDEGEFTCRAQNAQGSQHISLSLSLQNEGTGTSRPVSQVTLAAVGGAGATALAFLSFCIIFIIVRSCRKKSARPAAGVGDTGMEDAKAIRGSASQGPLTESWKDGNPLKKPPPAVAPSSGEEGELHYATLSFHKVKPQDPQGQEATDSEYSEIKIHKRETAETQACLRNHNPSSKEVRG

| binding result | Binder |
| --- | --- |
| no binding | B1 |
| no binding | B2 |
| no binding | B3 |
| no binding | B4 |

Target: T1, siglec 5 expressed on HEK293 cells
Experiment: as above
Description: as §1, with “Cultured HEK293” for “Target binding of siglec-6 antibodies to siglec-6-expressing”, “expressing human siglec-6, cynomolgus siglec-6, or siglec 6 family members” for “was assessed by flow cytometry. Cultured HMC1.2 cells”, “anti-human” for “anti-human or anti-mouse”, “antibody.” for “antibodies.”, “Data analysis was performed using FlowJo Software.” for “All tested siglec-6 antibodies were capable of binding to cells expressing siglec-6.”

| binding result | Binder |
| --- | --- |
| no binding | B1 |
| no binding | B2 |
| no binding | B3 |
| no binding | B4 |

Target: T2, siglec 2 expressed on HEK293 cells
Experiment: as above
Description: as §1, with “Cultured HEK293” for “Target binding of siglec-6 antibodies to siglec-6-expressing”, “expressing human siglec-6, cynomolgus siglec-6, or siglec 6 family members” for “was assessed by flow cytometry. Cultured HMC1.2 cells”, “anti-human” for “anti-human or anti-mouse”, “antibody.” for “antibodies.”, “Data analysis was performed using FlowJo Software.” for “All tested siglec-6 antibodies were capable of binding to cells expressing siglec-6.”

| binding result | Binder |
| --- | --- |
| no binding | B1 |
| no binding | B2 |
| no binding | B3 |
| no binding | B4 |

Target: T7, siglec 7 expressed on HEK293 cells (UniProt Q9Y286 19-467, limits assumed)
T7 construct: whole, on cells; also called Siglec-6 family member
Experiment: as above
Description: as §1, with “Cultured HEK293” for “Target binding of siglec-6 antibodies to siglec-6-expressing”, “expressing human siglec-6, cynomolgus siglec-6, or siglec 6 family members” for “was assessed by flow cytometry. Cultured HMC1.2 cells”, “anti-human” for “anti-human or anti-mouse”, “antibody.” for “antibodies.”, “Data analysis was performed using FlowJo Software.” for “All tested siglec-6 antibodies were capable of binding to cells expressing siglec-6.”

T7 sequence (Q9Y286 19-467 limits assumed): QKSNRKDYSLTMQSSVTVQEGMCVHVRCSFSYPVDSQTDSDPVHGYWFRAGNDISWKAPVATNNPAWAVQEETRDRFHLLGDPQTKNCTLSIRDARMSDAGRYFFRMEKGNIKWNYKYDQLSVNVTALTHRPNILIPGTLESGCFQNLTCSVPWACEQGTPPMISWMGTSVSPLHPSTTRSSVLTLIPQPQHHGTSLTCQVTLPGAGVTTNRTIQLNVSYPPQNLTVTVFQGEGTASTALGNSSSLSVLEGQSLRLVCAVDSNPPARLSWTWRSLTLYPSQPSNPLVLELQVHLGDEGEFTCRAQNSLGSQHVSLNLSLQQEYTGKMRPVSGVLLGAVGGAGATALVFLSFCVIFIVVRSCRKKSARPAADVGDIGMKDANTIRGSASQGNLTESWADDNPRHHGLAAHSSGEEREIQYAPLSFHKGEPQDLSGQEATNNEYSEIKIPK

| binding result | Binder |
| --- | --- |
| no binding | B1 |
| no binding | B2 |
| no binding | B3 |
| no binding | B4 |
